The results in this text go back to the RNAGym collection of RNA variant scans (doi:10.7554/elife.90254).

To fix the notation:
B1: LINE1-full (parent)
chain: UACGUAGGUGGUUUUCCCCUGAUAGUGCUAAGGGGGCCUGGAAGUUUGGACUGGGCAGAGCUCAACACAGCGUGGCAAAGUGGCUGUGGCUAGACUGCCUCUCUGGAUUCCUCGUCACUCAGCAGGGCAUCUCUGAGAGAAAUGCC

The data set covers variants of B1. Briefly: self-cleavage, relative activity (ratio to wild type); higher = more cleavage; in vitro, sequencing; the parent is a self-cleaving ribozyme.
As for UACGUAGGUGGUUUUCCCCUGAUAGUGCUAAGGGGGCCUGGAAGUUUGGACUGGGCAGAGCUCAACACAGCGUGGCUAAGUGGCUGUGGCUAGACUGCCUCUCUGGAUUCCACGUCACUCAGCAGGGCAUCUCUGAGAGAAAUGCC [A77U U112A], the self-cleavage stood at 1.1.
On to UACGUAGGUGGUUUUCCCCUGAUAGUGCUAAGGGGGCCUGGAAGUUUGGACUGGGCAGAGCUCAACACAGCGUGGCUAAGUGGCUGUGGCUACACUGCCUCUCUGGAUUCCUCGUCACUCAGCAGGGCAUCUCUGAGAGAAAUGCC [A77U G93C], for which the self-cleavage was determined as 0.03.
As to UACGUAGGUGGUUUUCCCCUGAUAGUGCUAAGGGGGCCUGGAAGUUUGGACUGGGCAGAGCUCAACACAGCGUGGCUAAGUGGCUGUGGCUAUACUGCCUCUCUGGAUUCCUCGUCACUCAGCAGGGCAUCUCUGAGAGAAAUGCC [A77U G93U], the self-cleavage came to 0.04.
On to UACGUAGGUGGUUUUCCCCUGAUAGUGCUAAGGGGGCCUGGAAGUUUGGACUGGGCAGAGCUCAACACAGCGUGGCUAAGUGGCUGUGGCUAGACUGCCUCUCUGGAUUCCUCGCCACUCAGCAGGGCAUCUCUGAGAGAAAUGCC [A77U U115C], for which the self-cleavage came out at 1.22.
Consider UACGUAGGUGGUUUUCCCCUGAUAGUGCUAAGGGGGCCUGGAAGUUUGGACUGGGCAGAGCUCAACACAGCGUGGCUAAGUGGCUGUGGCUAGACGGCCUCUCUGGAUUCCUCGUCACUCAGCAGGGCAUCUCUGAGAGAAAUGCC [A77U U96G], for which the self-cleavage was 0.27.
On to UACGUAGGUGGUUUUCCCCUGAUAGUGCUAAGGGGGCCUGGAAGUUUGGACUGGGCAGAGCUCAACACAGCGUGGCUAAGUGGCUGUGGCUAGACCGCCUCUCUGGAUUCCUCGUCACUCAGCAGGGCAUCUCUGAGAGAAAUGCC [A77U U96C], for which the self-cleavage stood at 0.1.
As to UACGUAGGUGGUUUUCCCCUGAUAGUGCUAAGGGGGCCUGGAAGUUUGGACUGGGCAGAGCUCAACACAGCGUGGCUAAGUGGCUGUGGCUAGACUGCCUCUCUGGAUUCCUCGUCACUCGGCAGGGCAUCUCUGAGAGAAAUGCC [A77U A121G], the self-cleavage is 1.6.
Consider UACGUAGGUGGUUUUCCCCUGAUAGUGCUAAGGGGGCCUGGAAGUUUGGACUGGGCAGAGCUCAACACAGCGUGGCUAAGUGGCUGUGGCUAGACUGCCUCUCCGGAUUCCUCGUCACUCAGCAGGGCAUCUCUGAGAGAAAUGCC [A77U U104C], for which the self-cleavage was found to be 1.74.
Regarding UACGUAGGUGGUUUUCCCCUGAUAGUGCUAAGGGGGCCUGGAAGUUUGGACUGGGCAGAGCUCAACACAGCGUGGCUAAGUGGCUGUGGCUAGACUGCCUCUCUGGAUCCCUCGUCACUCAGCAGGGCAUCUCUGAGAGAAAUGCC [A77U U109C], the self-cleavage came out at 0.98.
For UACGUAGGUGGUUUUCCCCUGAUAGUGCUAAGGGGGCCUGGAAGUUUGGACUGGGCAGAGCUCAACACAGCGUGGCUAAGUGGCCGUGGCUAGACUGCCUCUCUGGAUUCCUCGUCACUCAGCAGGGCAUCUCUGAGAGAAAUGCC [A77U U85C], the self-cleavage was determined as 0.09.
For the variant UACGUAGGUGGUUUUCCCCUGAUAGUGCUAAGGGGGCCUGGAAGUUUGGACUGGGCAGAGCUCAACACAGCGUGGCUAAGUGGCUGUGGCCAGACUGCCUCUCUGGAUUCCUCGUCACUCAGCAGGGCAUCUCUGAGAGAAAUGCC [A77U U91C], the self-cleavage worked out at 0.6.
For the variant UACGUAGGUGGUUUUCCCCUGAUAGUGCUAAGGGGGCCUGGAAGUUUGGACUGGGCAGAGCUCAACACAGCGUGGCUAAGUGGCUGUGGCUAGACUGCCUCUCUGAAUUCCUCGUCACUCAGCAGGGCAUCUCUGAGAGAAAUGCC [A77U G106A], the self-cleavage worked out at 1.31.
Take UACGUAGGUGGUUUUCCCCUGAUAGUGCUAAGGGGGCCUGGAAGUUUGGACUGGGCAGAGCUCAACACAGCGUGGCUAAGUGGCUGUGGCUAGACUGCCUCUCUGGAUUCCUCGUCACUCAGCAGGGCAUCCCUGAGAGAAAUGCC [A77U U132C]: the self-cleavage turned out to be 1.41.
UACGUAGGUGGUUUUCCCCUGAUAGUGCUAAGGGGGCCUGGAAGUUUGGACUGGGCAGAGCUCAACACAGCGUGGCUAAGUGGCUGUGGCUAGACUGCCUCUCUGGAUUUCUCGUCACUCAGCAGGGCAUCUCUGAGAGAAAUGCC [A77U C110U]: the self-cleavage amounted to 0.94.
With UACGUAGGUGGUUUUCCCCUGAUAGUGCUAAGGGGGCCUGGAAGUUUGGACUGGGCAGAGCUCAACACAGCGUGGCUAAGUGGCUGUGGCUAGGCUGCCUCUCUGGAUUCCUCGUCACUCAGCAGGGCAUCUCUGAGAGAAAUGCC [A77U A94G] the figure was 0.24; with UACGUAGGUGGUUUUCCCCUGAUAGUGCUAAGGGGGCCUGGAAGUUUGGACUGGGCAGAGCUCAACACAGCGUGGCUAAGUGGCUGUGGCUAGACUGCCUCUCUGGAUUCCUCGUCACUCAGCAAGGCAUCUCUGAGAGAAAUGCC [A77U G125A], 1.33.
As for UACGUAGGUGGUUUUCCCCUGAUAGUGCUAAGGGGGCCUGGAAGUUUGGACUGGGCAGAGCUCAACACAGCGUGGCUAAGUGGCUGUGGCUAGACUGCCUCUCUGGAUUCCUCGUCACUCAGCAUGGCAUCUCUGAGAGAAAUGCC [A77U G125U], the self-cleavage was 1.5.
Turning to UACGUAGGUGGUUUUCCCCUGAUAGUGCUAAGGGGGCCUGGAAGUUUGGACUGGGCAGAGCUCAACACAGCGUGGCUAAGUGGCUGUGGCUAGACUGCCUCUCUGGAUUCCUCGUCACUCAGCAGGGCAUUUCUGAGAGAAAUGCC [A77U C131U], the self-cleavage came out at 1.19.
On to UACGUAGGUGGUUUUCCCCUGAUAGUGCUAAGGGGGCCUGGAAGUUUGGACUGGGCAGAGCUCAACACAGCGUGGCUAAGAGGCUGUGGCUAGACUGCCUCUCUGGAUUCCUCGUCACUCAGCAGGGCAUCUCUGAGAGAAAUGCC [A77U U81A], for which the self-cleavage was 1.89.
UACGUAGGUGGUUUUCCCCUGAUAGUGCUAAGGGGGCCUGGAAGUUUGGACUGGGCAGAGCUCAACACAGCGUGGCUAAGUGGCUGUGGCUAGACUGCCUCUCUGGAUUCCUCGUCACUCAGCUGGGCAUCUCUGAGAGAAAUGCC [A77U A124U]: the self-cleavage was 1.27.
With UACGUAGGUGGUUUUCCCCUGAUAGUGCUAAGGGGGCCUGGAAGUUUGGACUGGGCAGAGCUCAACACAGCGUGGCUAAGUGGCUGUGGCUAGACUGCCUCUCUGGAUUCCUCGUCACUCAGCCGGGCAUCUCUGAGAGAAAUGCC [A77U A124C], the self-cleavage was 1.49.
With UACGUAGGUGGUUUUCCCCUGAUAGUGCUAAGGGGGCCUGGAAGUUUGGACUGGGCAGAGCUCAACACAGCGUGGCUAAGUGGCUGUGGCUAGACUGCCUCUCUGGAGUCCUCGUCACUCAGCAGGGCAUCUCUGAGAGAAAUGCC [A77U U108G] the figure was 1.37; with UACGUAGGUGGUUUUCCCCUGAUAGUGCUAAGGGGGCCUGGAAGUUUGGACUGGGCAGAGCUCAACACAGCGUGGCUAAGUGGCUGAGGCUAGACUGCCUCUCUGGAUUCCUCGUCACUCAGCAGGGCAUCUCUGAGAGAAAUGCC [A77U U87A], 0.05.
UACGUAGGUGGUUUUCCCCUGAUAGUGCUAAGGGGGCCUGGAAGUUUGGACUGGGCAGAGCUCAACACAGCGUGGCUAAGUGGCUGCGGCUAGACUGCCUCUCUGGAUUCCUCGUCACUCAGCAGGGCAUCUCUGAGAGAAAUGCC [A77U U87C]: the self-cleavage was 0.09.
With UACGUAGGUGGUUUUCCCCUGAUAGUGCUAAGGGGGCCUGGAAGUUUGGACUGGGCAGAGCUCAACACAGCGUGGCUAAGUGGCUGUGGCUAGACUGCCUCUCUGGAUUCCUCGUCACUCAGCAGGGCAGCUCUGAGAGAAAUGCC [A77U U130G] the figure was 1.86.
As to UACGUAGGUGGUUUUCCCCUGAUAGUGCUAAGGGGGCCUGGAAGUUUGGACUGGGCAGAGCUCAACACAGCGUGGCUAAGUGGCUGUGGCUAGACUGCCUCUCUGGUUUCCUCGUCACUCAGCAGGGCAUCUCUGAGAGAAAUGCC [A77U A107U], the self-cleavage came out at 0.62.
In the case of UACGUAGGUGGUUUUCCCCUGAUAGUGCUAAGGGGGCCUGGAAGUUUGGACUGGGCAGAGCUCAACACAGCGUGGCUAAGUGGCUGUGGCUAGACUGCCUCUCUGGAUUCCUCGUCACUCAACAGGGCAUCUCUGAGAGAAAUGCC [A77U G122A], the self-cleavage worked out at 0.36.
For the variant UACGUAGGUGGUUUUCCCCUGAUAGUGCUAAGGGGGCCUGGAAGUUUGGACUGGGCAGAGCUCAACACAGCGUGGCUAAGUGGCUGUGGCUAGACUGCCUCUCUGGAUUCCUCGUCACUCAGCAGGGCUUCUCUGAGAGAAAUGCC [A77U A129U], the self-cleavage was 1.24.
For the variant UACGUAGGUGGUUUUCCCCUGAUAGUGCUAAGGGGGCCUGGAAGUUUGGACUGGGCAGAGCUCAACACAGCGUGGCUAAGUGGCUGUGGCUAGACUGCCUCUCUGGAUUCCUCGUCACUCAGUAGGGCAUCUCUGAGAGAAAUGCC [A77U C123U], the self-cleavage is 0.84.
With UACGUAGGUGGUUUUCCCCUGAUAGUGCUAAGGGGGCCUGGAAGUUUGGACUGGGCAGAGCUCAACACAGCGUGGCUAAGUGGCUGUGGCUAGACUGCCUCUCUGGAUUCCUCGUCACUCAGCAGGGCAUCUCUGUGAGAAAUGCC [A77U A136U], the self-cleavage is 0.75.
The same measure for UACGUAGGUGGUUUUCCCCUGAUAGUGCUAAGGGGGCCUGGAAGUUUGGACUGGGCAGAGCUCAACACAGCGUGGCUAAGUGGCUGUGGCUAGACUGCCUCCCUGGAUUCCUCGUCACUCAGCAGGGCAUCUCUGAGAGAAAUGCC [A77U U102C]: 1.24; for UACGUAGGUGGUUUUCCCCUGAUAGUGCUAAGGGGGCCUGGAAGUUUGGACUGGGCAGAGCUCAACACAGCGUGGCUAAGUGGCUGUGGCUAGACUGCCUCUCUGGAUUCCUCGUCACUCAGCAGGACAUCUCUGAGAGAAAUGCC [A77U G127A]: 1.48.
With UACGUAGGUGGUUUUCCCCUGAUAGUGCUAAGGGGGCCUGGAAGUUUGGACUGGGCAGAGCUCAACACAGCGUGGCUAAGUGGCUGUGGCUAGACUGCCUCUCUGGAUUCCUCGUCACUCAGCAGGGCAUCUCUGAGGGAAAUGCC [A77U A138G] the figure was 1.75; with UACGUAGGUGGUUUUCCCCUGAUAGUGCUAAGGGGGCCUGGAAGUUUGGACUGGGCAGAGCUCAACACAGCGUGGCUAAGUGGCUGUGGCUAGACUGCCUCUCUGGAUUCCUCGUCACUCAGCAGGGCAUCUCUGAGUGAAAUGCC [A77U A138U], 1.27.
On to UACGUAGGUGGUUUUCCCCUGAUAGUGCUAAGGGGGCCUGGAAGUUUGGACUGGGCAGAGCUCAACACAGCGUGGCUAAGUGGCUGUGGCUAGACUGCCUCUCUGGAUUCCUCGUCACACAGCAGGGCAUCUCUGAGAGAAAUGCC [A77U U119A], for which the self-cleavage turned out to be 1.51.
For the variant UACGUAGGUGGUUUUCCCCUGAUAGUGCUAAGGGGGCCUGGAAGUUUGGACUGGGCAGAGCUCAACACAGCGUGGCUAAGUGGCUGUGACUAGACUGCCUCUCUGGAUUCCUCGUCACUCAGCAGGGCAUCUCUGAGAGAAAUGCC [A77U G89A], the self-cleavage came to 0.06.
With UACGUAGGUGGUUUUCCCCUGAUAGUGCUAAGGGGGCCUGGAAGUUUGGACUGGGCAGAGCUCAACACAGCGUGGCUAAGUGGCUGUGGCUAGACUGCCUCUCUGGAUUCCUCGUCACUCAGCAGGGCAUCUCUGAGAGAAAUGAC [A77U C145A] the figure was 1.75; with UACGUAGGUGGUUUUCCCCUGAUAGUGCUAAGGGGGCCUGGAAGUUUGGACUGGGCAGAGCUCAACACAGCGUGGCUAAGUGGCUGUGGCUAGACUGCCUCUCUGGAUUCCUCGUCACUCAGCAGGGCAUCUCUGAGAGUAAUGCC [A77U A140U], 1.23; with UACGUAGGUGGUUUUCCCCUGAUAGUGCUAAGGGGGCCUGGAAGUUUGGACUGGGCAGAGCUCAACACAGCGUGGCUAAGUGGCUGUGGCUAGACUGCCUCUCUGGAUUCCUCGUCACUCAGCAGGGCAUCUCUGAGAGGAAUGCC [A77U A140G], 1.37.
